Consider three molecules from patent US20240366718A1 (IMMUNOS THERAPEUTICS, published 2024).

B3: LILRB2 (c-terminally biotinylated, BPS Bioscience #100335) (receptor, human, UniProt Q8N423 22-460, looked up)
chain: QTGTIPKPTLWAEPDSVITQGSPVTLSCQGSLEAQEYRLYREKKSASWITRIRPELVKNGQFHIPSITWEHTGRYGCQYYSRARWSELSDPLVLVMTGAYPKPTLSAQPSPVVTSGGRVTLQCESQVAFGGFILCKEGEDEHPQCLNSQPHARGSSRAIFSVGPVSPNRRWSHRCYGYDLNSPYVWSSPSDLLELLVPGVSKKPSLSVQPGPVMAPGESLTLQCVSDVGYDRFVLYKEGERDLRQLPGRQPQAGLSQANFTLGPVSRSYGGQYRCYGAHNLSSECSAPSDPLDILITGQIRGTPFISVQPGPTVASGENVTLLCQSWRQFHTFLLTKAGAADAPLRLRSIHEYPKYQAEFPMSPVTSAHAGTYRCYGSLNSDPYLLSHPSEPLELVVSGPSMGSSPPPTGPISTPGPEDQPLTPTGSDPQSGLGRHLGV
modifications: C-terminal biotin
notes: Bought biotinylated protein; also called human LILRB2; biotinylated LILRB2

Assay [1] deals with T1, HLA-B57(A46E/V97R).β2m (HLA-B57 A46E/V97R IgG4 fusion protein associated with β2m) (human; homo sapiens).
T1 construct: Complex secreted from CHO cells co-transfected with the fusion protein and β2m; also called iosH2; IosH2
The experiment in a line: BLI. (In general: BLI is a label-free optical method that tracks binding on a fibre tip over time.)

The target of assay [2] is B3. The experiment in a line: BLI, biotinylated LILRB2 sensors, ANGPTL7 titrated with or without prior incubation of the sensor with iosH2.
Assay [3] has as its target T2, ANGPTL2 (R&D systems, 9795-AN) (UniProt Q9UKU9 23-493, limits assumed).
T2 construct: also called ANGTPL2
T2 sequence (looked up): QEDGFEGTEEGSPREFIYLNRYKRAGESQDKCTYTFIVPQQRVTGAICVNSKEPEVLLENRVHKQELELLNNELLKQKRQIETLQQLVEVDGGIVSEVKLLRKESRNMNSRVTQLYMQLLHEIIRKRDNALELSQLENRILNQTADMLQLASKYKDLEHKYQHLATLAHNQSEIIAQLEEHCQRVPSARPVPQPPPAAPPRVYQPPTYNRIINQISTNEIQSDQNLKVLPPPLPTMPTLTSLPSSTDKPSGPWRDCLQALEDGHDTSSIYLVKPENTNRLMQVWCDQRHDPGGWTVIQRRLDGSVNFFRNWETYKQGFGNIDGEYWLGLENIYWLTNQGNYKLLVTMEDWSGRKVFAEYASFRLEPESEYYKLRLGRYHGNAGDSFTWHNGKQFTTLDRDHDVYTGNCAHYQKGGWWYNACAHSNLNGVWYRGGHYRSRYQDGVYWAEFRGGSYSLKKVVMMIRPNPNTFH
The experiment in a line: BLI, biotinylated LILRB2 sensors, ANGPTL2 titrated with or without prior incubation of the sensor with iosH2.

B1: human LILRB1 (receptor, UniProt Q8NHL6 24-458, looked up)
chain: GHLPKPTLWAEPGSVITQGSPVTLRCQGGQETQEYRLYREKKTALWITRIPQELVKKGQFPIPSITWEHAGRYRCYYGSDTAGRSESSDPLELVVTGAYIKPTLSAQPSPVVNSGGNVILQCDSQVAFDGFSLCKEGEDEHPQCLNSQPHARGSSRAIFSVGPVSPSRRWWYRCYAYDSNSPYEWSLPSDLLELLVLGVSKKPSLSVQPGPIVAPEETLTLQCGSDAGYNRFVLYKDGERDFLQLAGAQPQAGLSQANFTLGPVSRSYGGQYRCYGAHNLSSEWSAPSDPLDILIAGQFYDRVSLSVQPGPTVASGENVTLLCQSQGWMQTFLLTKEGAADDPWRLRSTYQSQKYQAEFPMGPVTSAHAGTYRCYGSQSSKPYLLTHPSDPLELVVSGPSGGPSSPTTGPTSTSGPEDQPLTPTGSDPQSGLGRH
With B1, the binding result in assay [1] is “binds”.

B2: ANGPTL7 (R&D systems, 914-AN) (ligand, UniProt O43827 27-346, looked up)
chain: QKLSKHKTPAQPQLKAANCCEEVKELKAQVANLSSLLSELNKKQERDWVSVVMQVMELESNSKRMESRLTDAESKYSEMNNQIDIMQLQAAQTVTQTSADAIYDCSSLYQKNYRISGVYKLPPDDFLGSPELEVFCDMETSGGGWTIIQRRKSGLVSFYRDWKQYKQGFGSIRGDFWLGNEHIHRLSRQPTRLRVEMEDWEGNLRYAEYSHFVLGNELNSYRLFLGNYTGNVGNDALQYHNNTAFSTKDKDNDNCLDKCAQLRKGGYWYNCCTDSNLNGVYYRLGEHNKHLDGITWYGWHGSTYSLKRVEMKIRPEDFKP
Regarding B2, the binding result in assay [2] was “binds”.
With B3, in assay [3], the binding result is listed as “binds”.
